Key:
[1] = molecular target: MeCP2-MBD aromatic cage mutants, W104, F132, Y141, F142 and F155 to alanine (group as printed for the range of KD limits); assay: ITC; MicroCal PEAQ-ITC, 15 °C, 750 rpm; peptide (1.5 to 2 mM) in the syringe injected into protein (80 to 100 μM) in the cell; 50 mM HEPES pH 7.5, 200 mM NaCl, 5% glycerol; single-binding site model
[2] = molecular target: MeCP2-MBD domain wild-type, C-terminal 6xHis-tagged (UniProt P51608); assay: as above
Sequence of MeCP2-MBD domain wild-type, C-terminal 6xHis-tagged (P51608 90-162): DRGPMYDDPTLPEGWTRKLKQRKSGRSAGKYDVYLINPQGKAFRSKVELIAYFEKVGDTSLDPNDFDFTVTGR

Kd [1]: > 1000 µM | Kd [2]: 5.2 µM
Substance: histone H3(15-36)K27me3 peptide (from UniProt P68431 16-37)
